Data published in patent US6534051.

Tests used:
[1] = target: receptor of ecotropic murine leukemia virus (UniProt Q09143); assay: cell-based or functional assay
[2] = target: cell-surface protein expressed on various human cancers (e.g., HeLa and Col-1 cells), antigen of antibody B6.2 (human); assay: cell-based or functional assay

Sequence of UniProt Q09143 (Q09143 whole entry): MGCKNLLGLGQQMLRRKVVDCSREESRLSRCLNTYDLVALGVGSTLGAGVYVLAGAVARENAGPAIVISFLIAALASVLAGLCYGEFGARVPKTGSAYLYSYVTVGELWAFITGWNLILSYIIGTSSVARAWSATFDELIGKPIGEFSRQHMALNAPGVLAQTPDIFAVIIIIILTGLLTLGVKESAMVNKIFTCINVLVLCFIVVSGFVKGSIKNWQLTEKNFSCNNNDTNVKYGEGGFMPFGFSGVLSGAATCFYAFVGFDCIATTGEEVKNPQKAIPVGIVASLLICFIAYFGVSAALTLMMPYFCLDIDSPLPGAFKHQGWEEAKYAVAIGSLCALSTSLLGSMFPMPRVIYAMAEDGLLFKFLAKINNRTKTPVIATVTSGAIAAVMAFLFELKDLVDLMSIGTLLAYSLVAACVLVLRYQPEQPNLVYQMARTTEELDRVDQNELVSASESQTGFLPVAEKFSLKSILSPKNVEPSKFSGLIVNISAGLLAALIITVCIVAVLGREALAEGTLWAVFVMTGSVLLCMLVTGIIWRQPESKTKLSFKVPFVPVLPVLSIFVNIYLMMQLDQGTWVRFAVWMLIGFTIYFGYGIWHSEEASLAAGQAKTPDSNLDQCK

SNV-MLV-chiC targeting envelope: almost complete SU peptide of ecotropic murine leukemia virus fused to carboxy terminal part of the SNV envelope (as in pTC4)
Virus titer (cfu/ml) on CHTG cells, particles with MLV-SNV-chiC + wt SNV [1]: 1000 cfu/ml

SNV-MLV-chiD targeting envelope: almost complete SU peptide of ecotropic murine leukemia virus fused to carboxy terminal part of the SNV envelope (as in pTC5)
Virus titer (cfu/ml) on CHTG cells, particles with MLV-SNV-chiD + wt SNV [1]: 1000 cfu/ml

TC24 targeting envelope: B6.2 single chain antibody fused to carboxy terminal part of the SNV envelope (same amount of SNV envelope as pTC4) (scFv)
Titer (CFU/ml) on COL-1, particles with TC24 + wt-env [2]: 115 CFU/ml | Titer (CFU/ml) on HeLa, particles with TC24 + wt-env [2]: 250 CFU/ml | Titer (CFU/ml) on HeLa, particles with TC24 alone [2]: 5 CFU/ml

TC25 targeting envelope: B6.2 single chain antibody fused to carboxy terminal part of the SNV envelope (same amount of SNV envelope as pTC5) (scFv)
Titer (CFU/ml) on COL-1, particles with TC25 + wt-env [2]: 55 CFU/ml | Titer (CFU/ml) on HeLa, particles with TC25 + wt-env [2]: 100 CFU/ml | Titer (CFU/ml) on HeLa, particles with TC25 alone [2]: 20 CFU/ml

TC26 targeting envelope: B6.2 single chain antibody fused to the SNV envelope at codon 168 (167 in the legend of FIG. 6) (scFv)
Titer (CFU/ml) on COL-1, particles with TC26 + wt-env [2]: 45 CFU/ml | Titer (CFU/ml) on HeLa, particles with TC26 + wt-env [2]: 90 CFU/ml | Titer (CFU/ml) on HeLa, particles with TC26 alone [2]: 10 CFU/ml
